Source: PMC11217727

Experiments:
[1] = biological target: FGFR3 S249C stably expressed in BaF3 cells (human) (UniProt P22607); test: nonreducing SDS-PAGE with Western blot
[2] = biological target: FGFR3 S249C stably expressed in FaDu head and neck cancer cells (human) (UniProt P22607); test: nonreducing SDS-PAGE with Western blot

Row | percent of FGFR3 present as dimer [1] [%] | percent of FGFR3 present as dimer [2] [%] | Substance
1 | 6 |  | FGFR3 S249C stably expressed in BaF3 cells (from UniProt P22607 23-806) (receptor)
2 |  | 70 | FGFR3 S249C stably expressed in FaDu head and neck cancer cells (from UniProt P22607 23-806) (receptor)
